Assays:
[1] = target: SARS-CoV-2 ubiquitin-like domain 1 (Ubl1) of Nsp3 (residues 1–111) (SARS-CoV-2); assay: dynamic light scattering
[2] = target: SARS-CoV-2 nucleocapsid (N) protein (residues 1–419) (SARS-CoV-2) (UniProt P0DTC9); assay: ITC
[3] = target: SARS-CoV-2 ubiquitin-like domain 1 (Ubl1) of Nsp3 (residues 1–111) (SARS-CoV-2); assay: cross-linking

Substance | stoichiometry N [1] | Kd [2] | dH [2] | stoichiometry N [2] | stoichiometry N [3]
SARS-CoV-2 N protein N-terminal domain (NTD, residues 47–174) (from UniProt P0DTC9 47-174) (domain or fragment) | 0.5 NTD per Ubl1 | – | – | – | –
SARS-CoV-2 ubiquitin-like domain 1 (Ubl1) of Nsp3 (residues 1–111) (domain or fragment) | – | 800 nM | -14.9 kcal/mol | 1.19 | 2

From paper PMC9938351
